Measured values from patent US20080219971A1 (VACCINEX, published 2008).
Substitutions are numbered along the chain they refer to. Numbers in names are those of the source.

Assays:
[1] = molecular target: T1, Human CD100 (human, UniProt Q92854 22-734, limits assumed); experiment: ELISA method of Friguet et al.; column head 'Affinity (nM) IC50 ELISA'; antigen not named
T1 construct: also called SEMA4D; Hu CD100
T1 sequence (looked up): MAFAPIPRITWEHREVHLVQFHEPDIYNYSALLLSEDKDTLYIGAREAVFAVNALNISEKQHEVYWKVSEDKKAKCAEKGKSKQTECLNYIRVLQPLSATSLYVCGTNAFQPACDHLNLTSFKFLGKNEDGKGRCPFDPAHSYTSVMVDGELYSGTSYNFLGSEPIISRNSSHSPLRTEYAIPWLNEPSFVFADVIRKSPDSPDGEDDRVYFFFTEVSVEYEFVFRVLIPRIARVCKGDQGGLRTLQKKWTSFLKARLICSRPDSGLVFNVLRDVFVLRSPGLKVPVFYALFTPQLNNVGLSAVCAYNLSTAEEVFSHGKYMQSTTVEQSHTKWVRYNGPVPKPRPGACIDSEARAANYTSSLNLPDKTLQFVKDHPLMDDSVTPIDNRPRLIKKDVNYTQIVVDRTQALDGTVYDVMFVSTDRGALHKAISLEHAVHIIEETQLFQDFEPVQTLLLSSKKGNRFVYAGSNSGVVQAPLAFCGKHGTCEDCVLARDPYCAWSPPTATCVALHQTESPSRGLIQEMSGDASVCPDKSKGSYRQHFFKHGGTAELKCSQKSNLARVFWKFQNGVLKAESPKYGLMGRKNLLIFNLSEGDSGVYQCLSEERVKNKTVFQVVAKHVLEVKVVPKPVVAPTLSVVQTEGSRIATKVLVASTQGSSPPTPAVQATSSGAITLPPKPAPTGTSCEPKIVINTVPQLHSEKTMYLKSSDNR
Experimental: Antibody affinity was measured according to the ELISA method described in Friguet et al. (1985) J Immunol Methods 77(2):305-19.

[2] = molecular target: T2, human CD100-Fc (human, UniProt Q92854 22-734, limits assumed); experiment: competition ELISA on CD100-Fc: BD16 titrated against 5 ng/ml MAb 301, bound MAb 301 detected with anti-human Kappa HRP
T2 construct: also called CD100-Fc antigen
T2 sequence (looked up): T1 sequence (looked up)
Experimental: (§1) Competition ELISA assays were then performed. The ELISA plate was coated with CD100-Fc antigen, and BD16 or BB18 were allowed to bind individually to CD100. […] The cells were washed and antibody activity detected. Bound chimeric or human MAb was detected using anti-human Kappa HRP.

[3] = molecular target: T2, human CD100-Fc; experiment: competition ELISA on CD100-Fc: BD16 titrated against 5 ng/ml MAb 657, bound MAb 657 detected with anti-human Kappa HRP
Experimental: as §1

[4] = molecular target: T3, BSA (UniProt P02769 25-607); experiment: ELISA
T3 construct: Negative control antigen

[5] = molecular target: T4, human serum albumin (human, UniProt P02768 25-609); experiment: ELISA
T4 construct: Negative control antigen

[6] = molecular target: T5, streptavidin (UniProt P22629 37-163, limits assumed); experiment: ELISA
T5 construct: Negative control antigen

[7] = molecular target: T2, human CD100-Fc; experiment: ELISA on CD100-Fc antigen
[8] = molecular target: T6, huErb2-Fc (human, UniProt P04626 23-652); experiment: ELISA on huErb2-Fc antigen (Neg Ctrl)
T6 construct: Negative control antigen; also called huErb2-Fc antigen

[9] = molecular target: T6, huErb2-Fc; experiment: ELISA
[10] = molecular target: T1, Human CD100; experiment: affinity testing, reference value of MAb 1808 on the same day; unit not printed (nM as in Table 3); MAb 1808 reference on the day MAb 2117 was measured
[11] = molecular target: T1, Human CD100; experiment: affinity testing, reference value of MAb 1808 on the same day; unit not printed (nM as in Table 3); MAb 1808 reference on the day MAb 2125 was measured
[12] = molecular target: T1, Human CD100; experiment: affinity testing, reference value of MAb 1808 on the same day; unit not printed (nM as in Table 3); MAb 1808 reference on the day MAb 2139 was measured
[13] = molecular target: T1, Human CD100; experiment: affinity testing, reference value of MAb 1808 on the same day; unit not printed (nM as in Table 3); MAb 1808 reference on the day MAb 2144 was measured
[14] = molecular target: T1, Human CD100; experiment: affinity testing, reference value of MAb 1808 on the same day; unit not printed (nM as in Table 3); MAb 1808 reference on the day MAb 2163 was measured
[15] = molecular target: T1, Human CD100; experiment: affinity testing, reference value of MAb 1808 on the same day; unit not printed (nM as in Table 3); MAb 1808 reference on the day MAb 2202 was measured
[16] = molecular target: T1, Human CD100; experiment: affinity testing, reference value of MAb 1808 on the same day; unit not printed (nM as in Table 3); MAb 1808 reference on the day MAb 2208 was measured
[17] = molecular target: T1, Human CD100; experiment: affinity testing, reference value of MAb 1808 on the same day; unit not printed (nM as in Table 3); MAb 1808 reference on the day MAb 2216 was measured
[18] = molecular target: T1, Human CD100; experiment: affinity testing, reference value of MAb 1808 on the same day; unit not printed (nM as in Table 3); MAb 1808 reference on the day MAb 2220 was measured
[19] = molecular target: T1, Human CD100; experiment: affinity testing, reference value of MAb 1808 on the same day; unit not printed (nM as in Table 3); MAb 1808 reference on the day MAb 2191 was measured
[20] = molecular target: T1, Human CD100; experiment: affinity testing, method and unit not printed in Example 10 (nM as in Table 3); mutant value, before the parentheses

T5 sequence (P22629 37-163 limits assumed): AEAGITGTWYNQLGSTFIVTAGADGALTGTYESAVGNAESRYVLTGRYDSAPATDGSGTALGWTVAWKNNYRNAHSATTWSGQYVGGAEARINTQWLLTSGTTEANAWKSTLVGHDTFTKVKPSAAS
T4 sequence (P02768 25-609 limits assumed): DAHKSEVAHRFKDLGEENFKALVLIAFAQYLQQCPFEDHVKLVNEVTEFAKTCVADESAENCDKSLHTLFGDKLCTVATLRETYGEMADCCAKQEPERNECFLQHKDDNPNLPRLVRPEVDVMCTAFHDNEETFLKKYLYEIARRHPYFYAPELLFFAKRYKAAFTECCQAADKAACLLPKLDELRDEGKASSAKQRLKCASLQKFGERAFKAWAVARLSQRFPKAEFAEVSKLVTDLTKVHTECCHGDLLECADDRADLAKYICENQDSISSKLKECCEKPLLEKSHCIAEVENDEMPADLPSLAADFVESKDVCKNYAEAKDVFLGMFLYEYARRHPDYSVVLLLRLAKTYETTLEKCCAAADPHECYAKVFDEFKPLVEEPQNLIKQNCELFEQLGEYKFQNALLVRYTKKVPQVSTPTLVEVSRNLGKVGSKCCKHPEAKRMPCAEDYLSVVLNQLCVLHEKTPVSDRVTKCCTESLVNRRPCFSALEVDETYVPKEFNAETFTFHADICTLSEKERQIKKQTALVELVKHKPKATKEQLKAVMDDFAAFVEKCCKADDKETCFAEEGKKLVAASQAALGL
T3 sequence (P02769 25-607 limits assumed): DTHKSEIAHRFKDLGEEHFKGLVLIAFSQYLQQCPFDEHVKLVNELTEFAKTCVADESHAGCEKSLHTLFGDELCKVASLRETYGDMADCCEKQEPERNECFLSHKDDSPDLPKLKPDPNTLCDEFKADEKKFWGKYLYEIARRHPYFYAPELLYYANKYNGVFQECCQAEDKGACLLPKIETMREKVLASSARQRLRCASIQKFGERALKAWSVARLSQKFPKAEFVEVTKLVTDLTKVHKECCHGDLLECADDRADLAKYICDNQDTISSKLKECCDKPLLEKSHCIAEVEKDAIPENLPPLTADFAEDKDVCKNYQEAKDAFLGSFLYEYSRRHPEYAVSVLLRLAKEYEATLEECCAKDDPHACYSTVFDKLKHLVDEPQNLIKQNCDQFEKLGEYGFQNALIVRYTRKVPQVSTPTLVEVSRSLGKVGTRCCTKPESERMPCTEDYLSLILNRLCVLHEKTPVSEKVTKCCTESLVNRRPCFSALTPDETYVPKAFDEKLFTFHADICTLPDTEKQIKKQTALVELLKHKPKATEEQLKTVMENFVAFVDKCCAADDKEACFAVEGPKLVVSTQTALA

B1: BD16 (antibody, V domains shown)
VH: EVQLQQSGPELVKPGASVKMSCKASGYTFTDYYMDWVKQSHGESFEWIGRVNPYHGGATYNQKFKGKATLTVDKSSRTAYMELNSLTYEDSAVYYCAREENSYDGYYGMDYWGQGTTVTVSS
VL: DIVLTQSPSSLSVSAGEKVTMDCKSSQSLFNSGNQKNYLAWYHQKPGQPPKLLIYGASTRESGVPDRFTGSGSGTDFTLTISSVQAEDLAVYYCQNDHTYPYTFGGGTKLEIK
notes: Murine hybridoma anti-human CD100 antibody; also called mouse BD16; BD16 mouse MAb
Question: What does the source list for B1?
Answer: Kd [1]: 130 pM; IC50 (read off the curve) [2]: ~0.02 µg/mL; IC50 (read off the curve) [3]: ~0.03 µg/mL

B2: MAb 657 (antibody, human IgG1, V domains shown)
VH: QVQLVQSGAEVKKPGSSVKVSCKASGYTFTDYYMDWVRQAPGQGLEWIGRVNPYHGGATYNQKFKGKATITVDKSTSTAYMELSSLRSEDTAVYYCAREENSYDGYYGMDYWGQGTLVTVSS
VL: DIVMTQSPLSLPVSPGEPATINCKSSQSLFNSGNQKNYLAWYLQKPGQPPKLLIYGASTRESGVPDRFSGSGSGTDFTLTISSLQAEDVAVYYCQNDHTYPYTFGQGTKLEIK
notes: Humanized BD16, human IgG1; also called H1235/L284
Question: What does the source list for B2?
Answer: binding result [4]: no binding; binding result [5]: no binding; binding result [6]: no binding; EC50 (read off the curve) [7]: ~0.03 µg/mL; binding result [8]: no binding (tested: 500 ng/ml); Kd [1]: 120 pM

B3: MAb 1808 (antibody, human IgG4, V domains shown)
VH: B2 VH with I48M, K67R, A68V, V72A
VL: B2 VL
notes: Humanized BD16, fully human frameworks, human IgG4; also called H1651/L284
Question: Does B3 bind [9]?
Answer: no binding

Question: Does B3 bind [4]?
Answer: no binding

Question: Does B3 bind [5]?
Answer: no binding

Question: Does B3 bind [6]?
Answer: no binding

Question: And the Kd [1]?
Answer: 130 pM

Question: What about the Kd [10] of the same binder?
Answer: 570 pM

Question: And the Kd [11]?
Answer: 570 pM

Question: And the Kd [12]?
Answer: 710 pM

Question: What about the Kd [13] of the same binder?
Answer: 500 pM

Question: What about the Kd [14] of the same binder?
Answer: 120 pM

Question: And the Kd [15]?
Answer: 120 pM

Question: What about the Kd [16] of the same binder?
Answer: 120 pM

Question: And the Kd [17]?
Answer: 120 pM

Question: What about the Kd [18] of the same binder?
Answer: 120 pM

Question: What about the Kd [19] of the same binder?
Answer: 130 pM

B4: MAb 2191 (antibody, V domains shown)
VH: B2 VH with K23T, I48M, K67R, A68V, V72A, D104T
VL: B2 VL
notes: Double mutant of H1651 with L284; also called H1651 K23T D104T with L284
Question: With B4 as the binder, how does the Kd [20] read?
Answer: 90 pM
